From paper PMC3714537 (Molecular cell, 2012)

Target: linear tetra-Ub (UniProt P0CG47 1-76; P0CG47 1-76; P0CG47 1-76; P0CG47 1-76)

- Kd: 4.7 µM
B1: GFP-UBAN (EGFP fused to the CoZi domain of murine NEMO, amino acids 183-339) (domain or fragment, UniProt O88522 183-339, looked up)
chain: QLESEREVLQQQHSVQVDQLRMQNQSVEAALRMERQAASEEKRKLAQLQAAYHQLFQDYDSHIKSSKGMQLEDLRQQLQQAEEALVAKQELIDKLKEEAEQHKIVMETVPVLKAQADIYKADFQAERHAREKLVEKKEYLQEQLEQLQREFNKLKVG
